Data published in PMC5800945 (Journal of molecular biology, 2017).
Positions count from the first letter of the chain named. One block for each binder: values may come before it.

Target: histone chaperone Anti-silencing factor 1 (Asf1) (Saccharomyces cerevisiae S288c)
Experiment: crystal structure

histone chaperone Anti-silencing factor 1 (Asf1) (Saccharomyces cerevisiae S288c), sequence (P32447 2-154): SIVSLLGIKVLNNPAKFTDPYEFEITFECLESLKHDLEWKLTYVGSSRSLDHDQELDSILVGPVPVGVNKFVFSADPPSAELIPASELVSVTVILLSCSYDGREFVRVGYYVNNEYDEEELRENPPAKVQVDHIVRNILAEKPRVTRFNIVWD

- binding result: binds
B1: Fab1H (anti-Asf1 Fab, wild-type switch region) (Fab, V domains shown)
VH: EVQLVESGGGLVQPGGSLRLSCAASGFNVSYSSIHWVRQAPGKGLEWVAYIYPSSGYTSYADSVKGRFTISADTSKNTAYLQMNSLRAEDTAVYYCARSYSTKLAMDYWGQGTLVTVSS
VL: DIQMTQSPSSLSASVGDRVTITCRASQSVSSAVAWYQQKPGKAPKLLIYSASSLYSGVPSRFSGSRSGTDFTLTISSLQPEDFATYYCQQSQWYPITFGQGTKVEIK

- binding result: binds
B2: Fab1H-FNQIKG (Fab, V domains shown)
VH: B1 VH with S118F, S119N
VL: B1 VL

- binding result: binds
B3: Fab1H-VSRRLP (Fab, V domains shown)
VH: B1 VH with S118V
VL: B1 VL
